# In the supplement of paper PMC11246515:
# ± gives the standard deviation of the averaged measurements.
# Experiment: total protein half-life in vivo (active degradation + dilution); higher = more stable protein
# [1] = E. coli NCM3722 delta-clpP delta-lon delta-hslV, growth: N-lim chemostat, doubling time 6 h
# [2] = E. coli NCM3722 delta-clpP, growth: N-lim chemostat, doubling time 6 h
# [3] = E. coli NCM3722 delta-hslV, growth: N-lim chemostat, doubling time 6 h
# [4] = E. coli NCM3722 delta-lon, growth: N-lim chemostat, doubling time 6 h
# [5] = E. coli NCM3722 delta-smpB, growth: N-lim chemostat, doubling time 6 h
# [6] = wild type E. coli NCM3722, growth: C-lim chemostat, doubling time 3 h
# [7] = wild type E. coli NCM3722, growth: C-lim chemostat, doubling time 6 h
# [8] = wild type E. coli NCM3722, growth: C-lim chemostat, doubling time 12 h
# [9] = wild type E. coli NCM3722, growth: N-lim chemostat, doubling time 6 h
# [10] = wild type E. coli NCM3722, growth: N-lim chemostat, doubling time 12 h
# [11] = wild type E. coli NCM3722, growth: P-lim chemostat, doubling time 6 h
# [12] = wild type E. coli NCM3722, growth: P-lim chemostat, doubling time 12 h
Sequence,total protein half-life in vivo [1] [h],total protein half-life in vivo [2] [h],total protein half-life in vivo [3] [h],total protein half-life in vivo [4] [h],total protein half-life in vivo [5] [h],total protein half-life in vivo [6] [h],total protein half-life in vivo [7] [h],total protein half-life in vivo [8] [h],total protein half-life in vivo [9] [h],total protein half-life in vivo [10] [h],total protein half-life in vivo [11] [h],total protein half-life in vivo [12] [h]
MLQNCAQSNCRIIPKKLRDMKREEICRLLADKVNKLKNKENSLSGLLPDVRLLYGETPFARTPVMYEPGIIILFSGHKIGYINERVFRYDANEYLLLTVPLPFECETYATSEVPLAGLRLNVDILQLQELLMDIGEDEHFQPSMAASGINSATLSEEILCAAERLLDVMERPLDARILGKQIIREILYYVLTGPCGGALLALVSRQTHFSLISRVLKRIENKYTENLSVEQLAAEANMSVSAFHHNFKSVTSTSPLQYLKNYRLHKARMMIIHDGMKASAAAMRVGYESASQFSREFKRYFGVTPGEDAARMRAMQGN,5 ± 0.43,3.07 ± 0.072,2.48 ± 0.13,4.33 ± 0.18,2.432 ± 0.0042,2.08 ± 0.1,3.87 ± 0.56,4.94,2.98,3.71 ± 0.24,2.74,4.35 ± 0.82
MLQNPIHLRLERLESWQHVTFMACLCERMYPNYAMFCQQTGFGDGQIYRRILDLIWETLTVKDAKVNFDSQLEKFEEAIPSADDFDLYGVYPAIDACVALSELVHSRLSGETLEHAVEVSKTSITTVAMLEMTQAGREMSDEELKENPAVEQEWDIQWEIFRLLAECEERDIELIKGLRADLREAGESNIGIIFQQ,5.09 ± 0.47,5.16 ± 0.66,4.79 ± 0.12,5.23 ± 0.55,4.12 ± 1.1,3.1 ± 0.088,5.93 ± 0.21,,4.84 ± 0.12,8.11 ± 0.86,6.28 ± 0.52,13.7 ± 1.8
MLRIIDTETCGLQGGIVEIASVDVIDGKIVNPMSHLVRPDRPISPQAMAIHRITEAMVADKPWIEDVIPHYYGSEWYVAHNASFDRRVLPEMPGEWICTMKLARRLWPGIKYSNMALYKTRKLNVQTPPGLHHHRALYDCYITAALLIDIMNTSGWTAEQMADITGRPSLMTTFTFGKYRGKAVSDVAERDPGYLRWLFNNLDSMSPELRLTLKHYLENT [P0AEK0],5.44 ± 2,1.56 ± 0.12,1.2033 ± 0.0011,2.29 ± 0.6,0.987 ± 0.0014,1.24 ± 0.16,2 ± 0.16,2.32,1.37 ± 0.12,2.04 ± 0.23,1.52 ± 0.42,3.43
MLSIKDLHVSVEDKAILRGLSLDVHPGEVHAIMGPNGSGKSTLSATLAGREDYEVTGGTVEFKGKDLLALSPEDRAGEGIFMAFQYPVEIPGVSNQFFLQTALNAVRSYRGQETLDRFDFQDLMEEKIALLKMPEDLLTRSVNVGFSGGEKKRNDILQMAVLEPELCILDESDSGLDIDALKVVADGVNSLRDGKRSFIIVTHYQRILDYIKPDYVHVLYQGRIVKSGDFTLVKQLEEQGYGWLTEQQ,4.81 ± 0.069,5.52 ± 1.8,4.19 ± 0.79,4.25 ± 0.1,3.63 ± 0.052,2.88 ± 0.13,5.37 ± 0.23,10.1 ± 0.62,3.75 ± 0.3,5.68 ± 0.23,5.47 ± 0.51,9.75 ± 0.2
MLSKFKRNKHQQHLAQLPKISQSVDDVDFFYAPADFRETLLEKIASAKQRICIVALYLEQDDGGKGILNALYEAKRQRPELDVRVLVDWHRAQRGRIGAAASNTNADWYCRMAQENPGVDVPVYGVPINTREALGVLHFKGFIIDDSVLYSGASLNDVYLHQHDKYRYDRYHLIRNRKMSDIMFEWVTQNIMNGRGVNRLDDVNRPKSPEIKNDIRLFRQELRDAAYHFQGDADNDQLSVTPLVGLGKSSLLNKTIFHLMPCAEQKLTICTPYFNLPAILVRNIIQLLREGKKVEIIVGDKTANDFYIPEDEPFKIIGALPYLYEINLRRFLSRLQYYVNTDQLVVRLWKDDDNTYHLKGMWVDDKWMLITGNNLNPRAWRLDLENAILIHDPQLELAPQREKELELIREHTTIVKHYRDLQSIADYPVKVRKLIRRLRRIRIDRLISRIL,5.434 ± 0.046,5.74 ± 0.068,5.18 ± 0.38,5.91 ± 0.5,4.896 ± 0.011,2.97 ± 0.26,5.64 ± 0.11,9.36 ± 0.81,5.01 ± 0.21,8.57 ± 0.86,6.41 ± 0.85,12 ± 1.5
MLSRRGHRLSRFRKNKRRLRERLRQRIFFRDKVVPEAMEKPRVLVLTGAGISAESGIRTFRAADGLWEEHRVEDVATPEGFDRDPELVQAFYNARRRQLQQPEIQPNAAHLALAKLQDALGDRFLLVTQNIDNLHERAGNTNVIHMHGELLKVRCSQSGQVLDWTGDVTPEDKCHCCQFPAPLRPHVVWFGEMPLGMDEIYMALSMADIFIAIGTSGHVYPAAGFVHEAKLHGAHTVELNLEPSQVGNEFAEKYYGPASQVVPEFVEKLLKGLKAGSIA,5.1 ± 0.51,4.14 ± 0.054,4.03 ± 0.65,5.77 ± 0.77,4.15 ± 0.36,2.64 ± 0.21,4.79 ± 0.29,10.2 ± 0.35,4.37 ± 0.24,7.71 ± 0.99,5.56 ± 0.39,10.5 ± 1.2
MLSTLRRTLFALLACASFIVHAAAPDEITTAWPVNVGPLNPHLYTPNQMFAQSMVYEPLVKYQADGSVIPWLAKSWTHSEDGKTWTFTLRDDVKFSNGEPFDAEAAAENFRAVLDNRQRHAWLELANQIVDVKALSKTELQITLKSAYYPFLQELALPRPFRFIAPSQFKNHETMNGIKAPIGTGPWILQESKLNQYDVFVRNENYWGEKPAIKKITFNVIPDPTTRAVAFETGDIDLLYGNEGLLPLDTFARFSQNPAYHTQLSQPIETVMLALNTAKAPTNELAVREALNYAVNKKSLIDNALYGTQQVADTLFAPSVPYANLGLKPSQYDPQKAKALLEKAGWTLPAGKDIREKNGQPLRIELSFIGTDALSKSMAEIIQADMRQIGADVSLIGEEESSIYARQRDGRFGMIFHRTWGAPYDPHAFLSSMRVPSHADFQAQQGLADKPLIDKEIGEVLATHDETQRQALYRDILTRLHDEAVYLPISYISMMVVSKPELGNIPYAPIATEIPFEQIKPVKP,6.58,6.35,> 8,> 8,,,> 8,> 16,6.2,> 16,6.61,
MLSYRHSFHAGNHADVLKHTVQSLIIESLKEKDKPFLYLDTHAGAGRYQLGSEHAERTGEYLEGIARIWQQDDLPAELEAYINVVKHFNRSGQLRYYPGSPLIARLLLREQDSLQLTELHPSDYPLLRSEFQKDSRARVEKADGFQQLKAKLPPVSRRGLILIDPPYEMKTDYQAVVSGIAEGYKRFATGIYALWYPVVLRQQIKRMIHDLEATGIRKILQIELAVLPDSDRRGMTASGMIVINPPWKLEQQMNNVLPWLHSKLVPAGTGHATVSWIVPE,4.85 ± 0.21,5.06 ± 0.45,4.81 ± 0.14,4.96 ± 0.05,4.87 ± 0.07,3.16 ± 0.27,6.11 ± 0.47,10.7 ± 0.25,5.06 ± 0.073,8.35 ± 0.22,6.55 ± 0.2,14 ± 2.8
MLTEQQRRELDWEKTDGLMPVIVQHAVSGEVLMLGYMNPEALDKTLESGKVTFFSRTKQRLWTKGETSGNFLNVVSIAPDCDNDTLLVLANPIGPTCHKGTSSCFGDTAHQWLFLYQLEQLLAERKSADPETSYTAKLYASGTKRIAQKVGEEGVETALAATVHDRFELTNEASDLMYHLLVLLQDQGLDLTTVIENLRKRHQ,5.08 ± 0.17,4.38 ± 0.43,5.44 ± 1.4,4.24 ± 0.072,4.046 ± 0.0072,2.92 ± 0.14,5.63 ± 1,,4.51 ± 0.3,6.795 ± 0.027,,12.9 ± 3.1
MLTIQFLCPLPNGLHARPAWELKEQCSQWQSEITFINHRQNAKADAKSSLALIGTGTLFNDSCSLNISGSDEEQARRVLEEYIQVRFIDSDSVQPTQAELTAHPLPRSLSRLNPDLLYGNVLASGVGVGTLTLLQSDSLDSYRAIPASAQDSTRLEHSLATLAEQLNQQLRERDGESKTILSAHLSLIQDDEFAGNIRRLMTEQHQGLGAAIISNMEQVCAKLSASASDYLRERVSDIRDISEQLLHITWPELKPRNKLVLEKPTILVAEDLTPSQFLSLDLKNLAGMILEKTGRTSHTLILARASAIPVLSGLPLDAIARYAGQPAVLDAQCGVLAINPNDAVSGYYQVAQTLADKRQKQQAQAAAQLAYSRDNKRIDIAANIGTALEAPGAFANGAEGVGLFRTEMLYMDRDSAPDEQEQFEAYQQVLLAAGDKPIIFRTMDIGGDKSIPYLNIPQEENPFLGYRAVRIYPEFAGLFRTQLRAILRAASFGNAQLMIPMVHSLDQILWVKGEIQKAIVELKRDGLRHAETITLGIMVEVPSVCYIIDHFCDEVDFFSIGSNDMTQYLYAVDRNNPRVSPLYNPITPSFLRMLQQIVTTAHQRGKWVGICGELGGESRYLPLLLGLGLDELSMSSPRIPAVKSQLRQLDSEACRELARQACECRSAQEIEALLTAFTPEEDVRPLLALENIFVDQDFSNKEQAIQFLCGNLGVNGRTEHPFELEEDVWQREEIVTTGVGFGVAIPHTKSQWIRHSSISIARLAKPIGWQSEMGEVELVIMLTLGANEGMNHVKVFSQLARKLVNKNFRQSLFAAQDAQSILTLLETELTF,6.54,,,,2.21,2.36,,,,,3.21,
